This is an account of results in article PMC12454647.

As usually defined, the stoichiometry N is the number of molecules, sites or subunits per partner or assembly.

Test [1] addresses BdhE (bifunctional dehydrogenase E) from Halomonas eurihalina (Halomonas eurihalina). As to the kind of experiment: cryo-EM structure; single particle analysis, 2.02 mg/mL AdhE or 1.35 mg/mL BdhE, no cofactors added, Talos Arctica 200 kV, CryoSPARC.
Test [2] shares this target. Nature of the test: native gel or EMSA; blue native PAGE, 3-14% polyacrylamide gradient, 150 V for ~75 minutes; purified AdhE 5 or 10 ug, BdhE 1 or 2 ug. (Mobility shift assays separate free from complexed probe on a gel.)

Take “BdhE (bifunctional dehydrogenase E) from Halomonas eurihalina (enzyme)”: the stoichiometry N in test [1] and in test [2] was 4 in each case.
